# Measurements reported in article PMC6314816 (Journal of the American Chemical Society, 2018).
# B1: TmCHMO (Thermocrispum municipale) (protein)
# chain: MSTTQTPDLDAIVIGAGFGGIYMLHKLRNDLGLSVRVFEKGGGVGGTWYWNKYPGAKSDTEGFVYRYSFDKELLREYDWTTRYLDQPDVLAYLEHVVERYDLARDIQLNTEVTDAIFDEETELWRVTTAGGETLTARFLVTALGLLSRSNIPDIPGRDSFAGRLVHTNAWPEDLDITGKRVGVIGTGSTGTQFIVAAAKMAEQLTVFQRTPQYCVPSGNGPMDPDEVARIKQNFDSIWDQVRSSTVAFGFEESTVEAMSVSESERQRVFQQAWDKGNGFRFMFGTFCDIATNPEANAAAAAFIRSKIAEIVKDPETARKLTPTDLYAKRPLCNEGYYETYNRDNVSLVSLKETPIEEIVPQGVRTSDGVVHELDVLVFATGFDAVDGNYRAMNLRGRDGRHINEHWTEGPTSYLGVTKAGFPNMFMILGPNGPFTNLPPSIEAQVEWISDLIDKATREGLTTVEPTADAEREWTETCAEIANMTLFPKADSWIFGANIPGKRHAVMFYLGGLGNYRRQLADVADGGYRGFQLRGERAQAVA
# Tests used:
# Assay in all cases: spectrophotometric NADPH oxidation, initial rates
# Format in all cases: biochemical, Thermocrispum municipale
# Settings in all cases: NADPH co-substrate
# [1] = tested on: CC(=O)CCc1ccccc1
# [2] = tested on: CC(=O)Cc1ccccc1
# [3] = substrate: CC(=O)Cc1ccccc1; remark: listed apart in the source
# [4] = substrate: CC(=O)CCc1ccccc1; remark: listed apart in the source
molecule,measurement,setting,value
TmCHMO (Thermocrispum municipale; F434G/L145G/L437T/T435F),Km,[1],24 ± 4.1 µM
same,kcat,[1],0.16 ± 0.0028 s⁻¹
TmCHMO (Thermocrispum municipale; L437A/W492Y),Km,[2],1500 ± 460 µM
same,kcat,[2],0.16 ± 0.014 s⁻¹
B1,Km,[3],860 ± 60 µM
same,kcat,[3],0.73 ± 0.014 s⁻¹
same,Km,[4],12000 ± 7000 µM
same,kcat,[4],0.31 ± 0.11 s⁻¹
